{"source": "paper PMC8144621", "about": "“A two-hybrid system reveals previously uncharacterized protein–protein interactions within the Helicobacter pylori NIF iron–sulfur maturation system” (Scientific Reports, 2021)", "key": {"[1]": {"target": "the molecule itself", "test": "cross-linking; purified proteins (15 µM) incubated alone or together for 60 min at 25 °C with 10 mM dimethyl suberimidate (DMS), no ATP; SDS 4-20% gradient PAGE, Coomassie"}, "[2]": {"target": "T1, ApbC-(His)6, purified recombinant (Helicobacter pylori strain 26695, UniProt O24999 1-368)", "T1 construct": "H. pylori strain 26695 ApbC/HP0207, whole native hp0207 (apbC) ORF without its stop codon, cloned NdeI-XhoI in pET21b (pET-ApbC); predicted mass with tag 41.1 kDa; The name ApbC-(His)6 and the cloning without stop codon in pET21b put the tag at the C-terminus; the methods of the cross-linking call the protein 'native ApbC'; also called hexahistidine tagged-ApbC^WT; source: E. coli BL21 RIL, …", "T1 sequence (looked up)": "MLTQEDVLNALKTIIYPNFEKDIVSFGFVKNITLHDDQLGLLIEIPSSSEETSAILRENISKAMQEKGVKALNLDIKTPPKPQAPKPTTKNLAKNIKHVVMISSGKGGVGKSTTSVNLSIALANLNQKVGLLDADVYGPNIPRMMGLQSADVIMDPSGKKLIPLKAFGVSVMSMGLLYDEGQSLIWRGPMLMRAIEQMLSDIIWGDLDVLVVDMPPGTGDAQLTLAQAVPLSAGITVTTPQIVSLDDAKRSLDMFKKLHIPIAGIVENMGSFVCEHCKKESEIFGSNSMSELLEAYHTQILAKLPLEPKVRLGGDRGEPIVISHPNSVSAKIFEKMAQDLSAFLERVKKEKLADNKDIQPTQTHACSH", "test": "cross-linking; purified proteins (15 µM) incubated alone or together for 60 min at 25 °C with 10 mM dimethyl suberimidate (DMS), no ATP; SDS 4-20% gradient PAGE, Coomassie", "details": "both partners purified"}}, "data": [{"binder": "Nfu (HP1492), purified recombinant (natural protein, Helicobacter pylori, UniProt O26025 1-89, looked up, H. pylori Nfu/HP1492; also called recombinant Nfu; HpNfu) MIEFSDEDLQKPVRIVIEKIRPYLLKDGGNIEVLGVKSMKIYVALEGACKTCSSSKITLKNVIERQLKMDIHPNLEVVCLENAKEFDKL", "values": [{"measurement": "stoichiometry N", "setting": "[1]", "value": 2}, {"measurement": "binding result", "setting": "[2]", "value": "binds"}]}]}
